Biological target: T1, COL6A3 (peptide named COL6A3-642) peptide on HLA-A*02:01 (human)
T1 peptide: FLLDGSANV
Experiment: multimer staining

binding result: recognises
B1: COL6A3-642 C4 TCR (TRAV1-2*01F-TRBV9*01F) (TCR, V domains shown)
Valpha: GQNIDQPTEMTATEGAIVQINCTYQTSGFNGLFWYQQHAGEAPTFLSYNVLDGLEEKGRFSSFLSRSKGYSYLLLKELQMKDSASYLCAVRADRGSTLGRLYFGRGTQLTVWP
Vbeta: DSGVTQTPKHLITATGQRVTLRCSPRSGDLSVYWYQQSLDQGLQFLIQYYNGEERAKGNILERFSAQQFPDLHSELNLSSLELGDSALYFCASSVDGGASGEQFFGPGTRLTVL
